Measured values published in patent US20240228627A1, “GALECTIN-1-SPECIFIC MONOVALENT ANTIBODIES AND USES THEREOF” (INSTITUT NATIONAL DE LA RECHERCHE SCIENTIFIQUE, priority 2021, published 2024).
Entries after “also recorded” stand apart in the source; their conditions may differ.

Experiments:
[1] = molecular target: T1, human GAL-13 (Homo sapiens, UniProt Q9UHV8); experiment: microscale thermophoresis (MST) binding, human GAL-13; settings: at 10 μM; Red-NHS labeled G1N1 (2 nM)
T1 construct: made in house; host or cells: E. coli BL21 (DE3), pET-22b(+)
T1 sequence (Q9UHV8 1-139): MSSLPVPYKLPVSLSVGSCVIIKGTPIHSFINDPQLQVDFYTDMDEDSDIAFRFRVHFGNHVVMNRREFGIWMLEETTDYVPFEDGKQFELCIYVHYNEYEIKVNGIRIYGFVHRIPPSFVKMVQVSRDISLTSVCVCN
Description: (§1) FIGS. 9A-C show the binding affinities evaluated by microscale thermophoresis (MST) using various ligands over a range of 16 ligand concentrations allowing to obtain a full concentration-response curve. FIG. 9A: Red-NHS labeled human GAL-1 (5 nM) incubated with G1N1 or alpha-lactose (a-lactose). FIG. 9B: Red-NHS labeled G1N1 (2 nM) was used to study the affinity of G1N1 for mouse and human galectin-1. […] All experiments were performed in 20 mM Tris-HCl 150 mM NaCl and 0.1% F127. Binding affinities (Kd values) were determined from the fitted curves (three parameter dose-response curve) obtained from data of at least 3 independent experiments. For each value, 95% confidence intervals (Cl) are indicated.
(§2) Microscale thermophoresis (MST. Galectins were labeled using the RED-NHS labeling kit (Nanotemper Technologies, Germany) in accordance with the manufacturer's protocol. Unreacted dye was removed using the provided purification columns. Binding affinity assays were performed in 20 mM Tris-HCl, 150 mM NaCl and 0.1% F127. Samples were loaded into standard Monolith NT.115 capillaries and microscale thermophoresis was measured using a Monolith NT.115 Pico instrument (Nanotemper Technologies, Germany) at ambient temperature. Binding affinities (Kd values) were determined from the fitted curves (three parameter dose-response curve).

[2] = molecular target: T2, human galectin-1 (Homo sapiens, UniProt P09382); experiment: microscale thermophoresis (MST) binding affinity, human galectin-1
T2 construct: made in house; host or cells: E. coli BL21 (DE3), pET-22b(+)
Description: as §1, §2

[3] = molecular target: T3, human GAL-7 (Homo sapiens, UniProt P47929); experiment: inhibition of GAL-7-induced apoptosis of Jurkat T cells (annexin V/propidium iodide flow cytometry); assay type: cell-based; settings: human GAL-7 10 μM, 4 h at 37° C.
T3 construct: made in house; host or cells: E. coli BL21 (DE3), pET-22b(+)

[4] = molecular target: T4, recombinant human GAL-1 (rhGAL-1) (Homo sapiens, UniProt P09382); experiment: inhibition of galectin-1-induced apoptosis of Jurkat T cells (annexin V/propidium iodide flow cytometry); assay type: cell-based; settings: rhGAL-1 2.25 μM, 4 h at 37° C., increasing concentrations of nanobody
T4 construct: made in house; host or cells: E. coli BL21 (DE3), pET-22b(+)
Description: Briefly, Jurkat T cells were incubated with recombinant human GAL-1 (rhGAL-1; 2.25 μM) for 4h at 37° C. in presence of increasing concentrations of G1N1 and G1N2. Apoptosis was measured by flow cytometry using conventional annexin V/propidium iodide staining. Results represent data recorded on 5000 cells. Errors bars represent standard deviation.
Jurkat T cells were incubated with increasing concentrations of G1N1 pre-incubated with rhGAL-1 (2.25 μM) for 4 h at 37° C., after which apoptosis was measured by flow cytometry using Annexin V/propidium iodide staining. 5000 events were recorded. Errors bars represent standard deviation.
Apoptosis of human T cells. In vitro apoptosis assays were carried out using the standard in vitro human Jurkat T cell model system, fluorescein isothiocyanate (FITC)-labeled annexin V (Biolegend, San Diego, CA, USA) and propidium iodide (PI). Briefly, recombinant galectin-1 was pre-incubated for 1 h at 4° C. in serum free RPMI 1640 medium before addition to Jurkat cells. The mixture was incubated at 37° C. for 4 h. Cells were then washed once in PBS and once in binding buffer (0.01 M HEPES, 0.14 M NaCl, 2.5 mM CaCl2, pH 7.4). For staining, cells were incubated for 15 min with FITC-labeled annexin V in the dark at room temperature. The PI (0.25 μg/mL) stain was added to cells just before analysis by flow cytometry.

[5] = molecular target: T5, mouse galectin-1 (Mus musculus, UniProt P16045); experiment: microscale thermophoresis (MST) binding affinity, mouse galectin-1; settings: Red-NHS labeled G1N1 (2 nM); 20 mM Tris-HCl 150 mM NaCl 0.1% F127
T5 construct: made in house; host or cells: E. coli BL21 (DE3), pET-22b(+)
Description: as §1, §2

[6] = molecular target: T6, GAL-1-Biotin (biotinylated human GAL-1) (Homo sapiens, UniProt P09382); experiment: non-adsorbed phage ELISA of VHH clones on GAL-1-Biotin; assay type: binding; settings: HRP-conjugated anti-M13 antibody, TMB substrate; 282 clones tested
T6 construct: made in house; host or cells: E. coli BL21 (DE3), pET-22b(+)
Description: Generation and production of single chain camelid antibodies. Galectin-specific single chain (VHH) camelid antibodies were obtained following in vitro screening of a non-immune humanized synthetic single domain antibodies (hsd2Ab) library that contains more than 3×10^9 clones expressed at the surface of M13 phage [Moutel et al., 2016]. The panning was carried out against immobilized recombinant human galectin-1 devoid of carbohydrate in its glycan binding site (GBS). Prior to the phage display selection, galectin-1-biotin and GST-Biotin were bound to streptavidin magnetic beads (Dynabeads® M-280 Streptavidin, Life Technologies) with a 50 nM final concentration of biotinylated protein for the first round and 10 nM final concentration of biotinylated protein for the second and third rounds. […] Following three-rounds of phage display, clones were picked randomly and analyzed by non-adsorbed phage ELISA using HRP-conjugated anti-M13 antibody (GE Healthcare) and a colorimetric substrate (TMB, tetramethylbenzidine, Thermo Fischer).
Following an initial pre-screen round of phage display carried out with GST-biotin to deplete the library from unspecific binders, unbound VHHs were incubated with GAL-1-Biotin beads. […] A total of 282 VHHs were then picked and analyzed by ELISA for galectin-1 binders.

[7] = molecular target: T7, mouse GAL-7 (Mus musculus, UniProt O54974); experiment: microscale thermophoresis (MST) binding, mouse GAL-7; settings: at 10 μM; Red-NHS labeled G1N1 (2 nM)
T7 sequence (O54974 1-136): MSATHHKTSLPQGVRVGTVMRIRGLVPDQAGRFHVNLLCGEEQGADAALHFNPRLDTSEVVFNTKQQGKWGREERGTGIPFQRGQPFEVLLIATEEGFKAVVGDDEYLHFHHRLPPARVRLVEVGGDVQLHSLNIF
Description: as §1, §2

[8] = tested on: human galectin-1 versus galectin-2, -7, -13 and -16; experiment: ELISA binding of G1N1 to immobilized recombinant human galectins; settings: human galectins immobilized at 1 and 5 μM; increasing concentrations of G1N1
Description: Briefly, human galectins were immobilized at 1 and 5 μM for 16 h at 4° C. After a blocking step with PBS containing 10% (v/v) BSA (blocking buffer), increasing concentrations of G1N1 were added to each well and incubated for 1 h at room T° C. […] The colorimetric assay was carried out with 3,3′,5,5′-tetramethylbenzidine (Sigma-Aldrich, ON, Canada) according to the manufacturers recommendations.
ELISA assays. Recombinant human galectins were immobilized in 96-well plates at the indicated concentrations for 16 h at 4° C. After a blocking step with PBS containing 10% (v/v) bovine serum albumin (BSA) (blocking buffer), increasing concentrations of G1N1 were added to each well and incubated for 1 h at room temperature. […] The colorimetric assay was carried out with TMB (Sigma-Aldrich, MO, USA) according to the manufacturer's recommendations.

[9] = molecular target: T8, human GAL-8 (Homo sapiens, UniProt O00214); experiment: microscale thermophoresis (MST) binding, human GAL-8; settings: at 10 μM; Red-NHS labeled G1N1 (2 nM)
T8 sequence (O00214 1-317): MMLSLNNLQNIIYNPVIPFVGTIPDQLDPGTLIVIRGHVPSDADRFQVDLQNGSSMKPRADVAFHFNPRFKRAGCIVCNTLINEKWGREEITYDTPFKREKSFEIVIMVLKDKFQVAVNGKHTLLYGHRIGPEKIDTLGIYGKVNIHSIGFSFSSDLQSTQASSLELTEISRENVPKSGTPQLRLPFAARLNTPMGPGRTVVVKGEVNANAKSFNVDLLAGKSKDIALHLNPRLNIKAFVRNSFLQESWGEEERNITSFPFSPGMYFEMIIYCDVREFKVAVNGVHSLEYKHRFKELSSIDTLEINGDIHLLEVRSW
Description: as §1, §2

[10] = molecular target: T3, human GAL-7; experiment: microscale thermophoresis (MST) binding, human GAL-7; settings: at 10 μM; Red-NHS labeled G1N1 (2 nM)
Description: as §1, §2

T3 sequence (P47929 whole entry): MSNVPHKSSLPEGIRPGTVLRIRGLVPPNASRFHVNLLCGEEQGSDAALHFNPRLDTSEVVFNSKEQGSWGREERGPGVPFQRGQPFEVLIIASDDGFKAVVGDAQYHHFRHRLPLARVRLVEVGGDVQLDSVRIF
T2 sequence (P09382 whole entry): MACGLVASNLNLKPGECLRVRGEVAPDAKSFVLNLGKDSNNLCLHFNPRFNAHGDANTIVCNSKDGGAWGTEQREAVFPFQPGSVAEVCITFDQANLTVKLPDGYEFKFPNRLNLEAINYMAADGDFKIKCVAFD
T6 sequence (P09382 whole entry): as above
T4 sequence (P09382 whole entry): as above
T5 sequence (P16045 whole entry): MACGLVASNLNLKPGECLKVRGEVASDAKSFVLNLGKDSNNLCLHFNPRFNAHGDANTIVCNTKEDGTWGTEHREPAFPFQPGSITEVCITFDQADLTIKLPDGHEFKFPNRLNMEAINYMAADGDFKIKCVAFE

B1: G1N1: galectin-1-specific single-domain camelid VHH nanobody, SEQ ID NO:8; lead clone from phage display of a humanized synthetic library (protein)
VHH: MAEVQLQASGGGFVQPGGSLRLSCAASGSTFSEDAMGWFRQAPGKEREFVSAISGFANPHSYYADSVKGRFTISRDNSKNTVYLQMNSLRAEDTATYYCAASHKKTRAPAATFETYWGQGTQVTVSS
modifications: full sequence of G1N1 VHH
B1 was tested, and the “binding to human GAL-13 by MST” value [1] was “does not bind; also recorded: no binding was detected”, the “affinity for galectin-1 relative to the affinity of lactose for galectin-1” value ([2]; MST, Red-NHS labeled human GAL-1 (5 nM) with G1N1 or alpha-lactose) was “approximately 200 fold” and the “binding affinity (Kd) for human recombinant galectin-1 by MST” value ([2]; Red-NHS labeled G1N1 (2 nM), 20 mM Tris-HCl 150 mM NaCl 0.1% F127) was “in the nanomolar range”. The “inhibition of GAL-7-induced apoptosis of Jurkat T cells” value [3] was “did not inhibit; also recorded: No significant inhibition”, the “inhibition of galectin-1-induced apoptosis of Jurkat T cells” value [4] was “strong and significant inhibition” and the “binding affinity (Kd) for mouse recombinant galectin-1 by MST” value [5] was “in the nanomolar range”. For the same molecule, the “binding in phage ELISA in the presence of GAL-1-Biotin” value [6] was “strong binding; also recorded: strong positive hit”, the “binding to mouse GAL-7 by MST” value [7] was “does not bind; also recorded: no binding was detected” and the “specificity for galectin-1 by ELISA against galectin-2, -7, -13 and -16” value [8] was “specificity of G1N1 for galectin-1 was confirmed”. For the same molecule, the “binding to human GAL-8 by MST” value [9] was “does not bind; also recorded: no binding was detected” and the “binding to human GAL-7 by MST” value [10] was “does not bind; also recorded: no binding was detected”.
